# Source: publication PMC10716096, “A scalable overexpression of a thermostable recombinant poly-histidine tag carboxyl esterase under lambda promoter: purification, characterization, and protein modelling” (Journal of Genetic Engineering & Biotechnology, 2023)
# System: CCCCCCCCCCCC(=O)Oc1ccc([N+](=O)[O-])cc1
# Assay: purified protein
# Conditions: pH 7.4, 60 °C, substrate 10-30 mM
substance,measurement,value
EstB (6xHis carboxyl-esterase B) (Geobacillus thermoleovorans),Km,22.756 mM
same,kcat,59.6 min⁻¹
